Test results from patent US20250346673A1 (DUALITY BIOLOGICS SUZHOU, published 2025).

T1: human BDCA2 (human, UniProt Q8WTT0 1-213)
T1 sequence (looked up): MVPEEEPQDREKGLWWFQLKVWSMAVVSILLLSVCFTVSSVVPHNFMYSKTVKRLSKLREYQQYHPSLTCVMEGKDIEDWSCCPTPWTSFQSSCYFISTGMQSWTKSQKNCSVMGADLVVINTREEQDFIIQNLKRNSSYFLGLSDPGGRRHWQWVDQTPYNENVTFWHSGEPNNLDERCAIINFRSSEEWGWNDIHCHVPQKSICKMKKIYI

T2: cynomolgus BDCA2 (cynomolgus monkey, UniProt A0A2K5UWP4 1-212)
T2 construct: whole, on cells; also called Cyno BDCA2; cynoBDCA2
T2 sequence: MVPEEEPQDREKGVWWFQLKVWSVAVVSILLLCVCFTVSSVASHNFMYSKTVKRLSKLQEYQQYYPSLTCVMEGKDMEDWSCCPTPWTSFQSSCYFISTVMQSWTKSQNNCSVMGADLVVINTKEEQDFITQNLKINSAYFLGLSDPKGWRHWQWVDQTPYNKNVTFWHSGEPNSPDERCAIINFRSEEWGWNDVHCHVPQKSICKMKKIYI


What was measured:
[1] = target: T1, human BDCA2; experiment: cell-based or functional assay
[2] = target: T1, human BDCA2; experiment: FACS on CHOK1-hBDCA2 cells; EC50 table beside the plot, unit from the x axis (nM) [continued) c.]
Description: The cells were recovered and resuspended to 2×10⁶/mL with FACS buffer (PBS+2% FBS). The cells were added to 3799 cell plates (Corning) at 100 μL/well, and the supernatant was discarded after centrifugation at 300 g. The antibodies were serially diluted with FACS buffer (Id.), the diluted antibodies were added to centrifuged cells and the cells were resuspended. The cells were incubated at 4° C. for 1 h. The incubated cells were centrifuged at 300 g for 5 min and washed twice with FACS buffer. 100 μL […] anti-Human IgG (H+L) Cross-Adsorbed Secondary Antibody-Alexa Fluor 488 (Sigma, A11013; 1:1000) secondary antibody was added, washed twice with FACS buffer after incubation at 4° C. for 1 h, resuspended with PBS, analyzed with FACS (BD FACS CantoTM II) instrument and curve fitted with GraphPad Prism6, and EC₅₀ values were calculated.

[3] = target: T1, human BDCA2; experiment: FACS on CHOK1-hBDCA2 cells; EC50 table under the plot, unit from the x axis (nM) [continued) d.]
Description: (§1) The cells were recovered and resuspended to 2×10⁶/mL with FACS buffer (PBS+2% FBS). The cells were added to 3799 cell plates (Corning) at 100 μL/well, and the supernatant was discarded after centrifugation at 300 g. The antibodies were serially diluted with FACS buffer (Id.), the diluted antibodies were added to centrifuged cells and the cells were resuspended. The cells were incubated at 4° C. for 1 h. The incubated cells were then centrifuged at […] for 5 min and washed twice with FACS buffer. 100 μL Donkey anti-Mouse IgG (H+L) Highly Cross-Adsorbed Secondary Antibody-Alexa Fluor 488 (Invitrogen, A21202; 1:1000) secondary antibody was added to the cells, which were washed twice with FACS buffer after incubation at 4° C. for 1 h, resuspended with PBS, analyzed with FACS (BD FACS CantoTM II) instrument. The curve was fitted with GraphPad Prism6, and EC₅₀ values were calculated.

[4] = target: T2, cynomolgus BDCA2; experiment: FACS on 293F-cynoBDCA2 cells; EC50 table under the plot, unit from the x axis (nM) [continued) d.]
Description: as §1

Binder | IC50, inhibition of IFNα secretion, CpG-A stimulated human PBMC [1] | EC50 [2] | IC50 for inhibiting cytokine IFNα release, CpG-A stimulated human PBMC [1] | EC50 [3] | EC50 [4]
mAb021 (antibody, V domains shown, Mouse hybridoma antibody) VH: DVQLQESGPGLVKPSQSLSLTCSVTGYSITSAYYWNWIRQFPGNKLECMGYITYDGNNYYSPSLKNRISITRDTSKNQFFLNLNSVTTEDTATYFCARGGDYDDGGFAFWGQGTLVTVSA VL: DIQMTQSPASLSASVGETVTITCRASGNIHNYLAWYHQKQGKSPQLLVYNAKSLVDGVPSRFSGSGSGTQYSLRINSLQPEDFGSYYCQHFWIVPYTFGGGTKLEII |  |  | 0.00405 nM | 0.328 nM | 0.566 nM
mAb030 (antibody, V domains shown, Mouse hybridoma antibody) VH: DVQLQESGPGLVKPSQSLSLTCSVTGYSITSAYYWNWIRQFPGNKLECMGYISYDGSNYYNPSLKNRISITRDTSKNQFFLSLNSVTTEDTATYFCVRGGDYDDGGFAYWGQGTLVTVSA VL: DIQMTQSPASLSASVGETVTITCRASGNIHNYLAWYQQKQGKSPQLLVYNAKTLADGVPSRFSGSGSETQYSLKINSLQPEDFGNYFCQHFWIIPYTFGGGTKLEIK |  |  | 0.00476 nM | 0.293 nM | 0.566 nM
mAb027 (antibody, V domains shown, Mouse hybridoma antibody) VH: DVQLQESGPGLVKPSQSLSLTCSVTGYSITSAYYWNWVRQFPGNQLECMGYITYDGSNNYNPSLKNRISITRDTSKNQFFLKLNSVTTEDTATYYCVRGGDYDDGGFAYWGQGTLVTVSA VL: DIQMTQSPASLSASVGETVTITCRASGNIHNYLAWYQQKQGKSPQLLVYNAKTLVDGVPSRFSGSGSGTEYSLKINSLQPEDFGIYFCQHFWIIPYTFGGGTKLEIR |  |  | 0.07 nM | 0.302 nM | 0.68 nM
mAb020 (antibody, V domains shown, Mouse hybridoma antibody) VH: DVQLQESGPGLVKPSQSLSLTCSVTGYSIASGYYWNWIRQFPGNKLEWMGYISFDGTYNYNPSLKDRFSITRDTSKNQFFLKLNSVTTEDTATYYCARGVDYPNAIDWWGQGTSVTVSS VL: DIVLTQSPASLAVSLGQRATISCRASESVSMHVTHLIHWYQQKPGQPPKLLIYVASNLESGVPARFSGSGSETDFTLNIHPVEEEDAATYFCQQSFEDPWTFGGGTKLEIK |  |  | 0.00615 nM | 0.707 nM | 1.9 nM
mAb024 (antibody, V domains shown, Mouse hybridoma antibody) VH: EVQLVESGGDLVKPGGSLKLSCAASGFTFSSFGMSWVRQTPDKRLDWVATISSGDSYTYYPDSVKGRFSISRDNAKNTLYLQMSSLKSEDTAVYYCARQIYYDYAYYFDYWGQGTTLTVSS VL: DIVLTQSPASLAVSLGQRATISCRASESVSFRSSHLMHWYRQKPGQPPKLLIYAASNLESGVPARFSGSGSETDFTLNIHPVEEEDAAAYFCQQSIEDPPTFGGGTKLEIK |  |  | 0.00274 nM | 0.343 nM | 1.04 nM
mAb022 (antibody, V domains shown, Mouse hybridoma antibody) VH: DVQLQESGPGLVKPSQSLSLTCSVTGYSITSGYYWNWIRQFPGNKLEWMGYISFDGTYNYNPSLKDRFSITRDTSKNQFFLKLNSVTTEDTATYYCARGVDYPKAMDWWGQGTSVTVSS VL: DIVLTQSPASLAVSLGQRATISCRASESVSMHVTHLIHWYQQKPGQPPKLLIYVASNLESGVPARFSGSGSETDFTLNIHPVEEEDAATYFCQQSFEDPWTFGGGTKLEIK |  |  | 0.00623 nM | 0.723 nM | 1.96 nM
mAb019 (antibody, V domains shown, Mouse hybridoma antibody) VH: EVKLVESGGDLVQPGGSLKLSCAASGFTFSDYYMYWVRQTPEKRLEWVAYISYSGDSTYYPDTVKGRFTISRDNAKNTLFLQMSRLKSEDTAMYYCARHSPSFPYYFDYWGQGTALTVSS VL: EIVLTQSPAITAASLGQKVTITCSASSSVSYMHWYQQKSGTSPKPWIYEISKLASGVPARFSGSGSGTSYSLTISSMEAEDAAIYYCQLWNYPLITFGGGTNLEIK |  |  | 0.00332 nM | 0.271 nM | 0.485 nM

Results, then the binder that gave them:

IC50, inhibition of IFNα secretion, CpG-A stimulated human PBMC [1] | EC50 [2] | IC50 for inhibiting cytokine IFNα release, CpG-A stimulated human PBMC [1] | EC50 [3] | EC50 [4] | Binder
0.0127 nM | 0.479 nM |  |  |  | mab021c (antibody, V domains shown) VH: DVQLQESGPGLVKPSQSLSLTCSVTGYSITSAYYWNWIRQFPGNKLECMGYITYDGNNYYSPSLKNRISITRDTSKNQFFLNLNSVTTEDTATYFCARGGDYDDGGFAFWGQGTLVTVSA VL: DIQMTQSPASLSASVGETVTITCRASGNIHNYLAWYHQKQGKSPQLLVYNAKSLVDGVPSRFSGSGSGTQYSLRINSLQPEDFGSYYCQHFWIVPYTFGGGTKLEII
0.0164 nM | 0.583 nM |  |  |  | mab030c (antibody, V domains shown) VH: DVQLQESGPGLVKPSQSLSLTCSVTGYSITSAYYWNWIRQFPGNKLECMGYISYDGSNYYNPSLKNRISITRDTSKNQFFLSLNSVTTEDTATYFCVRGGDYDDGGFAYWGQGTLVTVSA VL: DIQMTQSPASLSASVGETVTITCRASGNIHNYLAWYQQKQGKSPQLLVYNAKTLADGVPSRFSGSGSETQYSLKINSLQPEDFGNYFCQHFWIIPYTFGGGTKLEIK
0.00898 nM | 0.443 nM |  |  |  | mab027c (antibody, V domains shown) VH: DVQLQESGPGLVKPSQSLSLTCSVTGYSITSAYYWNWVRQFPGNQLECMGYITYDGSNNYNPSLKNRISITRDTSKNQFFLKLNSVTTEDTATYYCVRGGDYDDGGFAYWGQGTLVTVSA VL: DIQMTQSPASLSASVGETVTITCRASGNIHNYLAWYQQKQGKSPQLLVYNAKTLVDGVPSRFSGSGSGTEYSLKINSLQPEDFGIYFCQHFWIIPYTFGGGTKLEIR
0.0185 nM | 0.831 nM |  |  |  | mab020c (antibody, V domains shown) VH: DVQLQESGPGLVKPSQSLSLTCSVTGYSIASGYYWNWIRQFPGNKLEWMGYISFDGTYNYNPSLKDRFSITRDTSKNQFFLKLNSVTTEDTATYYCARGVDYPNAIDWWGQGTSVTVSS VL: DIVLTQSPASLAVSLGQRATISCRASESVSMHVTHLIHWYQQKPGQPPKLLIYVASNLESGVPARFSGSGSETDFTLNIHPVEEEDAATYFCQQSFEDPWTFGGGTKLEIK
0.0168 nM | 0.549 nM |  |  |  | mab024c (antibody, V domains shown) VH: EVQLVESGGDLVKPGGSLKLSCAASGFTFSSFGMSWVRQTPDKRLDWVATISSGDSYTYYPDSVKGRFSISRDNAKNTLYLQMSSLKSEDTAVYYCARQIYYDYAYYFDYWGQGTTLTVSS VL: DIVLTQSPASLAVSLGQRATISCRASESVSFRSSHLMHWYRQKPGQPPKLLIYAASNLESGVPARFSGSGSETDFTLNIHPVEEEDAAAYFCQQSIEDPPTFGGGTKLEIK
0.0324 nM | 0.939 nM |  |  |  | mab022c (antibody, V domains shown) VH: DVQLQESGPGLVKPSQSLSLTCSVTGYSITSGYYWNWIRQFPGNKLEWMGYISFDGTYNYNPSLKDRFSITRDTSKNQFFLKLNSVTTEDTATYYCARGVDYPKAMDWWGQGTSVTVSS VL: DIVLTQSPASLAVSLGQRATISCRASESVSMHVTHLIHWYQQKPGQPPKLLIYVASNLESGVPARFSGSGSETDFTLNIHPVEEEDAATYFCQQSFEDPWTFGGGTKLEIK
0.0149 nM | 5.17 nM |  |  |  | mab019c (antibody, V domains shown) VH: EVKLVESGGDLVQPGGSLKLSCAASGFTFSDYYMYWVRQTPEKRLEWVAYISYSGDSTYYPDTVKGRFTISRDNAKNTLFLQMSRLKSEDTAMYYCARHSPSFPYYFDYWGQGTALTVSS VL: EIVLTQSPAITAASLGQKVTITCSASSSVSYMHWYQQKSGTSPKPWIYEISKLASGVPARFSGSGSGTSYSLTISSMEAEDAAIYYCQLWNYPLITFGGGTNLEIK
